From article PMC6910952 (Nature Communications, 2019)

Key:
Test in all cases: pull-down; GST-yNpl4 (0.5 μM, wild type or mutant) on Glutathione Sepharose 4B beads, 1 h at room temperature with 0.5 μM yUfd1, 3 μM Cdc48 (0.5 μM hexamer) and 1 μg K48 chains in 100 μL 50 mM Tris-HCl pH 7.5, 100 mM NaCl, 10% glycerol, 0.1% Triton X-100; chains detected by anti-Ub immunoblot, proteins by Ponceau S
Conditions in all cases: both partners purified
GST-yNpl4 S498R = target: T1, GST-yNpl4 S498R (Saccharomyces cerevisiae, UniProt P33755 1-580, S498R)
T1 construct: Npl4 of Saccharomyces cerevisiae (yNpl4), full length; source: E. coli Rosetta (DE3) (pGEX-6P1), purified (Glutathione Sepharose FF, Resource Q); not shown: GST, N-terminal, kept
T1 sequence (looked up): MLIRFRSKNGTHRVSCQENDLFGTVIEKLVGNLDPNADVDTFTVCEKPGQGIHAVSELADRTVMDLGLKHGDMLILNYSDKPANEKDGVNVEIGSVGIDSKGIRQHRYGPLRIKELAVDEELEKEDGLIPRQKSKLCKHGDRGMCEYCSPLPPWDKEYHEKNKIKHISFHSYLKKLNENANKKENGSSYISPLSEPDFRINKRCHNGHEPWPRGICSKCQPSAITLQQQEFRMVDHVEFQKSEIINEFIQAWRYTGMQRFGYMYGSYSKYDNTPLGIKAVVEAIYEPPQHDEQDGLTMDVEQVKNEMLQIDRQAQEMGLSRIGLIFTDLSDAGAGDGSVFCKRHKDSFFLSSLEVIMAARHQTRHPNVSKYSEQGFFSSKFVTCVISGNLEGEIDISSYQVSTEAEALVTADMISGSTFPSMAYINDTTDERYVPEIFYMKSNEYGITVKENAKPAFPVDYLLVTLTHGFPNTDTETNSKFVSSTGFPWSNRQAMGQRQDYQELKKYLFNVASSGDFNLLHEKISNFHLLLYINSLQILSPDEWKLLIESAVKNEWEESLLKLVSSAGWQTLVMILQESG

GST-yNpl4 I575A = target: T2, GST-yNpl4 I575A (Saccharomyces cerevisiae, UniProt P33755 1-580, I575A)
T2 construct: Npl4 of Saccharomyces cerevisiae (yNpl4), full length; source: E. coli Rosetta (DE3) (pGEX-6P1), purified (Glutathione Sepharose FF, Resource Q); not shown: GST, N-terminal, kept
T2 sequence (looked up): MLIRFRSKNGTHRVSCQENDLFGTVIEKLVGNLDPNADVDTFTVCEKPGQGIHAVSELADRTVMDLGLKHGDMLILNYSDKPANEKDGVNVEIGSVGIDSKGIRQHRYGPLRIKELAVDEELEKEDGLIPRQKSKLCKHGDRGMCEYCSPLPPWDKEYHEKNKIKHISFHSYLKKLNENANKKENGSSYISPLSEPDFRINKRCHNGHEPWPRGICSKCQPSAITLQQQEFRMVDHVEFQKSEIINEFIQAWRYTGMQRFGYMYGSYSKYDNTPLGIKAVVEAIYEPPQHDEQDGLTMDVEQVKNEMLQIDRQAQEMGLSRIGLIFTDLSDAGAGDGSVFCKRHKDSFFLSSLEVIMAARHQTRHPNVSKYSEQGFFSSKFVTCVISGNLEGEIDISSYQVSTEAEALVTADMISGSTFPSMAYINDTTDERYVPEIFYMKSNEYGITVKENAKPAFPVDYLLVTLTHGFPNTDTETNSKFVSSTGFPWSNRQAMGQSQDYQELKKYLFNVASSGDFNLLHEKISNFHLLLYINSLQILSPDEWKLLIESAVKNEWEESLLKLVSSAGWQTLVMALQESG

GST-yNpl4 T571A = target: T3, GST-yNpl4 T571A (Saccharomyces cerevisiae, UniProt P33755 1-580, T571A)
T3 construct: Npl4 of Saccharomyces cerevisiae (yNpl4), full length; source: E. coli Rosetta (DE3) (pGEX-6P1), purified (Glutathione Sepharose FF, Resource Q); not shown: GST, N-terminal, kept
T3 sequence (looked up): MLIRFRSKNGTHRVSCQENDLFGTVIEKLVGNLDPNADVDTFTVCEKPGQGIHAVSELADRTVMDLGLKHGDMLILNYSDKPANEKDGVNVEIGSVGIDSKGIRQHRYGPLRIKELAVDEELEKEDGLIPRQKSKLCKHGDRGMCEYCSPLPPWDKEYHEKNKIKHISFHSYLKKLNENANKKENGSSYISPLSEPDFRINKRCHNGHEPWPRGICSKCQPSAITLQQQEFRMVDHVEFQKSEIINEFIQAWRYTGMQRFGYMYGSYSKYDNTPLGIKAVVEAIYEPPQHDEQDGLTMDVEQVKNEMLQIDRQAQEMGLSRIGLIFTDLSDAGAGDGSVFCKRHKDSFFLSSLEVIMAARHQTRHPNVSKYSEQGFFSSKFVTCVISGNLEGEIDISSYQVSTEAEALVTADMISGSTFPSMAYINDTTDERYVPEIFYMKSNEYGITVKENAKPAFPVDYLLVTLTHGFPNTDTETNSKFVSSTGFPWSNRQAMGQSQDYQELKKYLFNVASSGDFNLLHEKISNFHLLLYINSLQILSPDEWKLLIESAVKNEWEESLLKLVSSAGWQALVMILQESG

binding result (GST-yNpl4 S498R): binds
binding result (GST-yNpl4 I575A): binds
binding result (GST-yNpl4 T571A): binds
B1: yUfd1 (full length, untagged) (natural protein, Saccharomyces cerevisiae, UniProt P53044 1-361, looked up)
chain: MFSGFSSFGGGNGFVNMPQTFEEFFRCYPIAMMNDRIRKDDANFGGKIFLPPSALSKLSMLNIRYPMLFKLTANETGRVTHGGVLEFIAEEGRVYLPQWMMETLGIQPGSLLQISSTDVPLGQFVKLEPQSVDFLDISDPKAVLENVLRNFSTLTVDDVIEISYNGKTFKIKILEVKPESSSKSICVIETDLVTDFAPPVGYVEPDYKALKAQQDKEKKNSFGKGQVLDPSVLGQGSMSTRIDYAGIANSSRNKLSKFVGQGQNISGKAPKAEPKQDIKDMKITFDGEPAKLDLPEGQLFFGFPMVLPKEDEESAAGSKSSEQNFQGQGISLRKSNKRKTKSDHDSSKSKAPKSPEVIEID
notes: Ufd1 of Saccharomyces cerevisiae (yUfd1), full length; codon-optimized synthetic cDNA; removal of GST by HRV3C is surmised; also called untagged Ufd1; source: E. coli Rosetta (DE3) (pGEX-6P1), purified
